{
  "source": "paper PMC8176890",
  "key": {"[1]": {"molecular_target": "wild-type heterotrimeric human Gαi1β1γ1 (human) (UniProt P63096)", "sequence (P63096 whole entry, chain 1 of 3)": "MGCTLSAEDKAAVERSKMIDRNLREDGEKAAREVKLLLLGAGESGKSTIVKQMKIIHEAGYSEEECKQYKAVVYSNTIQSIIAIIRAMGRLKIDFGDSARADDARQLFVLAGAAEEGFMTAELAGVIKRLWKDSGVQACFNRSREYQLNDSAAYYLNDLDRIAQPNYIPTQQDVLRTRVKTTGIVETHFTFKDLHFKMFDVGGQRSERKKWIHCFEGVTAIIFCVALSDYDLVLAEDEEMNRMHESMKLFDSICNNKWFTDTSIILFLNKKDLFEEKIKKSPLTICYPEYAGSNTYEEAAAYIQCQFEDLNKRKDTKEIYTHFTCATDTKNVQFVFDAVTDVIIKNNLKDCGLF", "sequence (P62873 2-340, chain 2 of 3, further chain)": "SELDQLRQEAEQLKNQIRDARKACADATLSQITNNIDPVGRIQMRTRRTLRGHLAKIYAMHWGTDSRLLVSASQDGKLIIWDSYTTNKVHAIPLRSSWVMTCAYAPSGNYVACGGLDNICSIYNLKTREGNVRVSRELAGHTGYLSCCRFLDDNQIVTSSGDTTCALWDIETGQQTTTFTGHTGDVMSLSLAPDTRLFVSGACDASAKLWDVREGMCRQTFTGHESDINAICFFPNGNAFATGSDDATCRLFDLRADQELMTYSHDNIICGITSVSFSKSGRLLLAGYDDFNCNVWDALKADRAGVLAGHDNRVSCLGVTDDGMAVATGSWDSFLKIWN", "sequence (P63211 2-74, chain 3 of 3, further chain)": "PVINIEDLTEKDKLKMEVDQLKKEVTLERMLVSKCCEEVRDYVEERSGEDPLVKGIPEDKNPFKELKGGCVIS", "assay": "MST"}, "[2]": {"molecular_target": "wild-type heterotrimeric human Gαi1β1γ1 (human) (UniProt P63096)", "assay": "BLI"}, "[3]": {"molecular_target": "wild-type heterotrimeric human Gαi1β1γ1 (human) (UniProt P63096)", "assay": "MST", "remark": "listed apart in the source"}, "[4]": {"molecular_target": "wild-type heterotrimeric human Gαi1β1γ1 (human) (UniProt P63096)", "assay": "MST", "remark": "listed apart in the source"}, "[5]": {"molecular_target": "wild-type heterotrimeric human Gαi1β1γ1 (human) (UniProt P63096)", "assay": "MST", "remark": "listed apart in the source"}},
  "note": "Like-named read-outs stand apart in the source and are kept apart here.",
  "data": [
    {"substance": "NTS-NTSR1 complex with the 5-alanine mutant TM86V-L167R E166A/K176A/K178A/S182A/R185A (from UniProt P20789 50-390)", "values": [
      {"measurement": "Kd", "setting": "[1]", "result": 347, "unit": "nM"}
    ]},
    {"substance": "NTS-NTSR1 complex: neurotensin 8-13 bound to rat NTSR1 TM86V-L167R ΔIC3B (from UniProt P20789 50-390)", "values": [
      {"measurement": "KD of the high-affinity binding mode (2:1 model)", "setting": "[2]", "result": 5.8, "unit": "nM"},
      {"measurement": "KD of the lower-affinity binding mode (2:1 model)", "setting": "[2]", "result": 38, "unit": "nM"},
      {"measurement": "Kd", "setting": "[3]", "result": 1400, "unit": "nM"},
      {"measurement": "Kd", "setting": "[4]", "result": 236, "unit": "nM"},
      {"measurement": "Kd", "setting": "[1]", "result": 76, "unit": "nM"},
      {"measurement": "Kd", "setting": "[5]", "result": 53, "unit": "nM"}
    ]}
  ]
}
